Laboratory results as given in patent publication US20230102344A1 (published 2023).

Experiments:
[1] = target: T1, TCRvβ 6-5 expressed on cells (TCRvβ 6-5+ Jurkat cells; human T cells) (human); test: cell binding
T1 chain: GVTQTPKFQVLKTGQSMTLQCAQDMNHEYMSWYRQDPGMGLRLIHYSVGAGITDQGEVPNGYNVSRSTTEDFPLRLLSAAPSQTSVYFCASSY

[2] = target: CD33 expressed on cells (MOLM-13, MV411, HL60) (human, UniProt P20138 18-364); test: cell binding
[3] = target: T1, TCRvβ 6-5 expressed on cells (TCRvβ …); test: FACS cell binding

CD33 expressed on cells (MOLM-13, MV411, HL60), sequence (P20138 18-364): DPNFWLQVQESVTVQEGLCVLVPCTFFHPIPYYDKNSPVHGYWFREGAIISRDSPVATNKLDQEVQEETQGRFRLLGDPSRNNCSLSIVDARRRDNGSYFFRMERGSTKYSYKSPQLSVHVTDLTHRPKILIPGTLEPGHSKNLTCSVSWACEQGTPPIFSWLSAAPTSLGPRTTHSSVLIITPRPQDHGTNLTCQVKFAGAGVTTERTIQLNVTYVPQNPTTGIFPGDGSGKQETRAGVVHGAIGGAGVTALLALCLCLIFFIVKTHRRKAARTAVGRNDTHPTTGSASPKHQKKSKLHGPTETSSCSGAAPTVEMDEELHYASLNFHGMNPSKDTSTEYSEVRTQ

EC50 [1]: 0.91 nM
EC50 [2]: 0.13 nM
EC50 [3]: 0.908 nM
B1: BJM0387 (bispecific antibody)
heavy: QVQLVQSGAEVKKPGSSVKVSCKASGYSFTTYYIHWVRQAPGQGLEWMGWFFPGSGNIKYNEKFKGRVTITADTSTSTAYMELSSLRSEDTAVYYCAGSYYSYDVLDYWGQGTTVTVSSGGGGSGGGGSGGGGSGGGGSDIQMTQSPSFLSASVGDRVTITCKASQNVGINVVWHQQKPGKAPKALIYSSSHRYSGVPSRFSGSGSGTEFTLTISSLQPEDFATYFCQQFKSYPLTFGQGTKLEIKGGGGSQVQLVQSGAEVKKPGSSVKVSCKASGYTFTDYNMHWVRQAPGQGLEWIGYIYPYNGGTGYNQKFKSKATITADESTNTAYMELSSLRSEDTAVYYCARGRPAMDYWGQGTLVTVSS
light: DIQMTQSPSSLSASVGDRVTITCRASESVDNYGISFMNWFQQKPGKAPKLLIYAASNQGSGVPSRFSGSGSGTDFTLTISSLQPDDFATYYCQQSKEVPWTFGQGTKVEIK
